According to the nanobody polyreactivity screen of Harvey et al. (2022):

Experiment: yeast display, Sf9 membrane polyspecificity reagent, FACS + sequencing; frameworks hold sequencing errors
Procedure, shortened: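 A synthetic nanobody library was expressed on Saccharomyces cerevisiae BJ5465 by galactose induction for 36–48 hours. The library was stained for 1 hour at 4 °C with 10% biotinylated, detergent-solubilized Sf9 membrane reagent and enriched with streptavidin microbeads before FACS. Low and high (top ~1%) gates were set on anti-HA fluorescence for expression and streptavidin fluorescence for reagent binding, and each polyreactivity label reflects the gate of origin.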

Sequence | polyreactivity (PSR sort gate)
QVQLVESGGGLVQAGGSLRLSCAASGFTFGRIAMGGYRQAPGKERELVASIDWSGGSTYYADSVKGRFTISRDNAKNTVYLQMNSLKPEDTAVYYCAVGPNSVGNRSYGFDYWGQGTQVTVSS | low polyreactivity
QVQLVESGGGLVQAGGSLRLSCAASGSTFAPNTMGWYRQAPGKERELVARITSSDGSTTYADSVKGRFTISRDNAKNTVYLQRNSLKPEDTAVYYCAADYGRRWGYDYWGQGTQVTVSS | low polyreactivity
QVQLVESGGGLVHAGGSLRLSCAASGRTFLLYAMGWYRQAPGKERELVARITGRGGRTYYADSVKGRFTISRDNAKNTVYLQMNSLKPEDTAVYYCNAKGYQGQWERYDYWGQGTQVTVSS | high polyreactivity
QVQLEESAGRLVQAGGSLRLSCAASGFIISPYAMGWYRQAPGKERELVAAISWSGVYTYYADTVKGRFTISRDNAKNTVYLQMNSLKPEDSAVYYCATYGTVYYWGQGTQVTVST | high polyreactivity
QVQHVESGRGLVQAGGSLRLSCAASGSIFRWYTMGWYRQAPGKERELVAAITSGGTTKYADSVKGRFTISRDNAKNTVYLQMNSLKPEDTAVYYCARRHRYRYDWGQGTQVTVSS | high polyreactivity
QVQLVESGGGLVQAGGSLRLSCASSGLTFRYNAMGWYRQAPGKERELVAAIRTSGGSTYYADSVKGRFTISRDNAKNTVYLQMNSLKPEDTAVYYCAARSKSYYGGYARGYWGQGTQVTVSS | high polyreactivity
QVQLVESGGGLGQAGGSLRLSCAASGFTFSSNAMGWYRQAPGNERALVAAISGNGGITYYADSVKGRFTISRDNAKNTVYLQMNCLKPEDTAVDYCAAEAYRYAWYDYWGQGTQVTVSS | high polyreactivity
QLKLVESGGGLVQAGASLRLSCAASGSIFYGYTMGWYRQAPGKERELVAGISTYYADSVKGRFTISRDNAKNTVYLQMNSLKPEDTEVYYCAADYSSTTSEYDYWGQGTQVTVSS | low polyreactivity
QVQLVESGGGLVQAGGSLRLSCAASGSTFYGYGLGWYRPAPGKERELFAAITGSGDTTYYADSVKGRFTISRDNAKNTVYLQMNSLKPEDTAVYYCNARWHAEYDYWGQGTQVTVSS | low polyreactivity
QVQLVESGGGLVQAGGSLRLSCAASGSTFYIYAIGLYRQAPGKERELVAAINWRTGSTYYADSVMGRFTISRDNAKNTVYLQMNSLKPEDTAVYYWNAYTQHWSYWGQGTQVTVSS | high polyreactivity
QVQIVESGGGLVQAGGTLRLSCAASGFIFSSYGMGWYRKAPGKERELVADISGGGSTNYADSVKGRFTISRDNAKNSVYLQMNSLKPEETAVYYCNAQLIRSAAYDYWGQGTQVSVSS | low polyreactivity
QVQLVESGGGLVPAGGSLRLSCAASGRTFAGNAMGWYRPAPGTERELVAVISRGGSTYYADSVKGRFTISRDNAKNTVYLQMNSLKPEDTAVYYCAARLRTTSVRGRYDYWGQGTQVTVSS | high polyreactivity
QVQLVESGGGLVQAGGSLSLSCAASGSIFNPYGKGWYRQAPGKERELVAAITSSGGDTYYADSVKGRFTISRDNAKNTVYLQMNSLKPEDTAVYYCAATGLPGYYAYDYWGHGTQVTVSS | low polyreactivity
QVQLEESGGGLVQAGGSLRLSCAASGISFDTYAMGRNRPAPGKERELVAAMSSSGSTNYADSVKGRFTISRDNAKKTVYLQMNSLKPEDTADYYCATDYWPGTGGTYDYWGQGTQVTVSS | low polyreactivity
QVHLEESGGGLVQAGGSLRLSCAASGRTFRHNAMGWYRQAPGKERELVAAISSSGTNTHYADSVKGRFTISRDNAKNTVYLQMNSLKPEDTAVYYCAADRWGARRKQYHENGYWGQGTQVTVSS | high polyreactivity
QVQLVESGGGLVQAGGSLRLSCAASGSTFSVYGMGWYRQAPGKERELVAAISGSGSRTYYADSVKGRFTISRDNAKNTVYLQMNSLKPEDTAVYYCAAVRRLLQGRTMYYWGQGTQVTVSS | high polyreactivity
QVQLVESGGGLVQAGGSLRLSCAASGRIFYSYAMGWYRQAPGKERELVATITNGGSTNYADSVKGRFTMSRDNAKNTVYLQMNSLKPEDTAVYYCAKRSFRYASALVRYPPGYYWGQGTQVTVSS | high polyreactivity
QVQQQASGGGLVQAGGSLRLSCATSGSIFYADTMGWYRQAPGKEREFVITYYADSVKGLSRDNAKNTVYLQMNSLKPEDSAVYYCATDGVNPFYAYDYWGQGTQVTVSS | low polyreactivity
